Experimental findings from article PMC5014583 (Structure (London, England : 1993), 2016) are described below.

Assay [1] addresses T1, Full-length human calmodulin (CaM) (human, UniProt P0DP23 1-149). The assay is described as follows: NMR titration.
In assay [2] the target is T1, Full-length human calmodulin (CaM). The assay is described as follows: ITC. A general note: In ITC the heat of successive injections is recorded.

“And” between values parts separate entries of the source, which are not always exact repeats. Identical values can stand only once.

The Kd is the free concentration of one partner at which half of the binding sites on the other are occupied at equilibrium, for simple one-to-one binding. Low readings indicate a tighter complex, high ones a looser complex.

SPANSFHFKEAWKHAIQKAKHMPDPWA [eEF-2KCBD, calmodulin-binding segment of human eEF-2K (residues 74-100)] showed a Kd in assay [1] of 36000 nM. For the same molecule, in assay [2], the Kd is 153 nM and 137 nM; the dH is -16.6 kcal/mol.
